Experimental data from the DeepSol protein solubility set.

Test: soluble on expression in E. coli; label from the status in PepcDB or PDB records

Sequence	soluble on expression in E. coli
MVKAVIFTDFDGTVTLEDSNDYLTDTLGFGKEKRLKVFEGVLDDTKSFRQGFMEMLESIHTPFPECIKILEKKIRLDPGFKDTFEWAQENDVPVIVVSSGMKPIIKVLLTRLVGQESIHKIDIVSNEVEIDAHDQWKIIYKDESPFGHDKSRSIDAYKKKFESTLKAGEQRPVYFYCGDGVSDLSAAKECDLLFAKRGKDLVTYCKKQNVPFHEFDTFKDILASMKQVLAGEKTVAELMEN	soluble
MGSDKIHHHHHHMMNTSTSDPIGAAWLIRYASIELVSPLYITSSIGGRRQTYKEGNVIHNAYQETARPLDTIIAHLQFHMRHEVLNLELLVRLFEQIGADDVQAWVNAEPTGSYARRMAFLYEWLMDKELAVSSNLGGNYVDALDTKKMVTSSPEHIIKNARWRINDNLAGTRHFCPMLVKTEAFTQAAALDIATMVEKLNDEFGQDLLMRASVWMTLRESKASFTIEGEGKELKRIERFAEVMARRTGKGDIPLDPESLAELQQEILGSKTVIQQYGIRQSPVFVSHTQVNGFKEIVHYIAPPSEDIAYKLTGLQALMKKTEGQSALMRSAVASFAFVYIHPLADGNGRVHRFLINDVLRRDQVIHEPIILPISQAIAEHPSDRHAYDKILDRVSVPLMRQIRDHYRFDKQAVTYPDGIRSNLNFADSHLIQPAWRFMDLTPHVQYLSGLIAHVIEKEMHNESQYLRQHDHARLAIKEIVEMPNSYADRIIRSMLQNKGAKSNKLLQDYPFLANEAVWDDVFSVVVEIFK	not soluble
MSLDDEPLLPDFEQLGYPRNLPTLVLGLRGMICEITHSKKNGWGIVKRPGVDKFFNILKNYYEIVIWSDESFPIPHEVLEKWNLPIIGILNKNHFSKINGKLFKNLSRLGRNLNRVILVDNESYSANIQYDNSIVLPIFKGDPYDNELNSIIDLLKAAAMQPGDIREYLKRFRCNDTNIGDEGHHHHHH	soluble
MDIPVFTMVGEWKCKEGEWKFEPKEGIFGRCVRVQETMTYTDFVRTLREAFSLKSTEINPIISYWMLGEMSVLIDTKHPPVYIDSQMGLETFFFGSWWVSFSQLVRLFQ	not soluble
MGSDKIHHHHHHMTRADYLNQLEQALFQLHPSARQEALDYFNEYFDEKDNDEEAIIELGTPDEAAKEIIANLPEDALIPEKDQASPHSSKPFDFNFDFDFQFDWENFFNNFKHSAYQARERIKLTSKIEELPEFSNLQISLEDQALSVQSYEGEAVLLHNPVSEDGSYQAFDYQLVQDSLYISSKPTPNHLYFSNNQISSAILKIPKKLLPLTNLNLKTADSSLTIVDVQVCEQMVVNAKDSSISMTKVSCPSSALQLEDSTLTISDGQMSELKLEASDAVITLSSMSLSDARITLEDCVWKLKDFVLEKSLNCQAEDSVLTYKPSTDISLDIWEEDSSLKLPKDKAFTMMKEGDITHLSYKQENSPAQLVIHCQDCQLSVG	not soluble
MSFFVNRIWYGNHFLQWILVPFSWLYRIVIRTRRWYLQRFCQQLYPIPIIVVGNVTVGGVGKTPLVIEIAKKIQQKGLKVGIVSRGYKAAIKHFPYEVKLNDSAELVGDEPLMMARKINCPVVIAPKRNEAVRYLLDKHSVEIIISDDGLQHYKMGRSIEIVVIDGMRKLGNGFCLPAGPLREPDSRLKQVDFVIVNQGAAEGTYSMELIPKNIVRLSTQEEVSNDLFTSEVAAVAGIGNPQRFYSTLSQLGIKFNPYSYPDHHQFKPHDLNDIDLPVIMTEKDAVKCYSFSSDKLYYLPVEAKLNDSFWEAFWSHQQLQGYYLEHHHHHH	not soluble
MTDYLADVQKYDSSADEAVVNKIVRHLGIALRNKDSALVSASDPKELERVREKWCEKKLGVGGSDADAAIAATAKAMADDRSKSRVTFYYLVAKNLGKLQTL	not soluble
GSLSLIRKKGFYKQDVNKTAWELPKTYVSPTHVGSGAYGSVCSAIDKRSGEKVAIKKLSRPFQSEIFAKRAYRELLLLKHMQHENVIGLLDVFTPASSLRNFYDFYLVMPFMQTDLQKIMGMEFSEEKIQYLVYQMLKGLKYIHSAGVVHRDLKPGNLAVNEDCELKILDFGLARHADAEMTGYVVTRWYRAPEVILSWMHYNQTVDIWSVGCIMAEMLTGKTLFKGKDYLDQLTQILKVTGVPGTEFVQKLNDKAAKSYIQSLPQTPRKDFTQLFPRASPQAADLLEKMLELDVDKRLTAAQALTHPFFEPFRDPEEETEAQQPFDDSLEHEKLTVDEWKQHIYKEIVNFSPIARKDSRV	soluble
SLRKERARSAEEPWTQNQQKLLELALQQYPRGSSDCWDKIARCVPSKSKEDCIARYKLLV	soluble
MNEIMLETKNLCKTFRQQSVVQNISLSVPKYAIYGLLGPNGAGKSTTLKMITGMLIPTSGEIYFDGHKWTRHDLHSIGALIDSPPLYENLTARENLQVRTTVLGLPKSRIDEVLHVVELENTEKKKAKDFSMGMKQRLGIAIALLNHPKFLILDEPMNGLDPFGIQELRKLILSFPGKGITVILSSHILSEVSQIADHVGIISGGVLGYQGKLNKNDDLEDLFVQVAGKYRREA	not soluble
MGSDKIHHHHHHMFIGFDYGTANCSVAIMRDGHPQLLTMENNSALLPSMLCAPTREAVSEWLYRHHDVPATDEETQALLRRAIRYNREEDIEVGAQSVQFGLASLAHYIDDPQEVWFVKSPKSFLGASGLKPQQVALFEDLVCAMMVHIRHTAHSQLPEAITQAVIGRPINFQGLGGDDANRQAQGILERAAKRAGFQEVVFQYEPVAAGLDYEATLREEKRVLVVDIGGGTTDCSMLLMGPQWRQRADRENSLLGHSGCRVGGNDLDIALAFKNLMPLLGMGGETEKGIALPVLPWWNAVAINDVPAQSDFYSSANGRLLNDLVRNAREADKVALLLKVWRQRLSYRLVRCAEESKIALSGQADVTARLPFISDDLAVAISQQGLEAALDQPLTRILEQVQLALDSAQEKPDVIYLTGGSARSPLIKKALSEQLPGIPVAGGDDFGSVTAGLARWAEVVFR	not soluble
MLESMTGYGSAERSEKGMKVLVELRSVNNRFAEIGVKLPRQLLSWELEVRELIRASFQRGKISAFVQLQLEEAEALPVTVNPSKVRGYKALLETVRREAEIEAPVTLDHVLRFSEIFEPDHTILEHPDEIWPIAQSALIEAIGNLKEMRRKEGEELAIDFLSRIDEIERTLKEIKEIAAGNLETIRKRLASKISAIAGCDVEYSKDRLEMEIVMAAERLDITEECIRFSSHNKFFIEELNNSSSGSGRKLNFLLQEQLREANTIASKSQNADISQKVVHIKEELEKVREQLQNIE	soluble
MSLAHKFDPSKIKKLDDPSRLELFDPEKVLKEFGLKEGMTVLDVGTGAGFYLPYLSKMVGEKGKVYAIDVQEEMVNYAWEKVNKLGLKNVEVLKSEENKIPLPDNTVDFIFMAFTFHELSEPLKFLEELKRVAKPFAYLAIIDWKKEERDKGPPPEEVYSEWEVGLILEDAGIRVGRVVEVGKYCFGVYAMIVKQEEENPLMNVPFKIPPGEGHHHHHH	soluble
MEMDLPVSAIGFEGFEKRLEISFVEPGLFADPNGKGLRSLSKAQLDEILGPAECTIVDNLSNDYVDSYVLSE	soluble
MSEAHPPELKKFMDKKLSLKLNGGRHVQGILRGFDPFMNLVVDDTIEMAPGGQMNTIGMVVIRGNSIIMLEALERV	soluble
MGSDKIHHHHHHMKIGILTFANVPNFGANLQALSTISYLQNHGYNPILIKWEPEDFEARFTSIKTQKQPQEHFHFVEKYLPQTKICRNDDDICQVIKDEKIEGIIIGSDAVLQCSSFWGRLDFPTKTVVRVNKTTSEREYPNAFWGTFYDKLGSKIPMVIMSASSQNAKYRLIARSVKHKMSNNLSHFEYISVRDIWTRDMITYITKGAIIPNITPDPVFAFNYNCAKFIPSKEDILLKYHLPENYVLVSMKCRMLDNMLWMDKLKSEMKKLYLECVALPMPTGIEFKHNFDFSITTPLPPLDWYALIKYAKGYIGENMHPIVVALHNAVPCFCFDTYGVLKYARCVCVEESSKIYDIMSRFSLLDNRINAYSRFWKCPPVDIVINRILHFDVIACQKTALNYYNNYEQMMSSILEVFKSK	not soluble
MKLDLIQSMLYNNPKPQDTKEGLSDQDFSIYMDAHTVPFSKYPSYMPAGVLGICTEGNAEIQVGLRKYVICANDILIFMPGFLVSFIKSSPTFTIDYCTFSNVLFYDVINGSIKRFPTGFHTYTQTHCVYSLSQEKAEQFSIYFRLLYNRATSPTYLFTKESITNLLKLPFLELYADYYSTVKEHKVTTLHKEEIGYFFLDLLLKHYKENKEVAFYAEKLHVSSKYLTEALTLVSGKSPKEWIIHYTLQEIYALLENPSISIQEIVQRTRFANLATLRRFFKRHTGTSLLQYRKQDLYKNNQ	not soluble
MQQLLAPVHAFLRCETPQTWIDVARASASLDELLIDHCNCELKAAQTAMFLLRRYALNAESGQSLLAWAKPYEEFVYHKDRDIEQFLARDVKKNELVAVLQPNQHFSFAQDLIPPLIRLIKEEFHHFEQVLELMHARQIPYRNIRAGRYAKGMMSHVTTHEKNILRDKLIVGAYIEARSCERFAKLAPYLDAELSKFYVSLLRSEARHFEDYLKLAQLVSSEDISERVAYFGEREAELIMAPDDEFHFHSGQPQAIKYSYA	not soluble
SMVRLKKSFGQHLLVSEGVLKKIAEELNIEEGNTVVEVGGGTGNLTKVLLQHPLKKLYVIELDREMVENLKSIGDERLEVINEDASKFPFCSLGKELKVVGNLPYNVASLIIENTVYNKDCVPLAVFMVQKEVAEKLQGKKDTGWLSVFVRTFYDVNYVMTVPPRFFVPPPKVQSAVIKLVKNEKFPVKDLKNYKKFLTKIFQNRRKVLRKKIPEELLKEAGINPDARVEQLSLEDFFKLYRLIEDSGE	soluble
MKRIVVKVGSHVISEENTLSFERLKNLVAFLAKLMEKYEVILVTSAAISAGHTKLDIDRKNLINKQVLAAIGQPFLISVYNELLAKFNKLGGQILLTGKDFDSRKATKHAKNAIDMMINLGILPIINENDATAIEEIVFGDNDSLSAYATHFFDADLLVILSDIDGFYDKNPSEFSDAKRLEKITHIKEEWLQATIKTGSEHGTGGIVTKLKAAKFLLEHNKKMFLASGFDLSVAKTFLLEDKQIGGTLFE	soluble
MSMNRQEISDLCVKSLEGRMVGTEAQNIENGNAFYRYFFTNFPDLRVYFKGAEKYTADDVKKSERFDKQGQRILLACHLLANVYTNEEVFKGYVRETINRHRIYKMDPALWMAFFTVFTGYLESVGCLNDQQKAAWMALGKEFNAESQTHLKNSNLPHV	not soluble
MERAGICHSDGFDLAYRIEGEGAPILVIGSAAYYPRLFSSDIKQKYQWVFVDHRGFAKPKRELRAEDSRLDAVLADIERMRTFLQLEDVTTLGHSGHAFMALEYARTYPKQVRKVALFNTAPDNSEERQRKSESFFMETASLERKKRFEKDIENLPQDIDKDPERRFVHMCIRAEAKSFYQERPHAAALWDGVFTNMPIIDELWGNTFARIDLLQRLADVRMPVYIGLGRYDYLVAPVSLWDAVDGLYPHVDKVIFEKSGHQPMLEEPEAFDQSFRKWLDQ	not soluble
MSLKNNEVAFYAMGGLGEIGKNMYCVQFQDEIIVIDCGVLFPEDELLGVDYVIQNYDYLIENKDKIKGIFITHGHEDHIGGLPFFLQKVNAPIYAGPFAMSLIKGKLEEKHLLRNAELHEINEFDEVHFKKLWVSFFRTTHSIPDTLGVAVHTPQGTIVQTGDFKFDLTPVGNLPGPNLQQMAKLGDDGVLLLTSDSTNAERPEFTKSERWVDIHIRRIFERIKGRIIFASFASNVYRLREASDAAIAQGRKIAVFGRSMENAITAGQELGYLNIPKDSLIDQNEINNYPPEKVLIMCTGSQGEPMAALSRIANGTHRQITIQPEDTVVFSSNPIPGNTTSVNALINKLEESGANVIHGYVNNIHTSGHGGQVDEEFMLRLMKPKFFAPVHGEYRMQKIHTKLAEMTGVPKENSFVLANGDVLALTKDSCRVADHIDSVSDVYIDGRDAGDTVGNPEIRERRLLSEEGVVTAIAVVDLKDYQIVAGPDIVSRGFVYMHESQELIKAANHEVFWAILNTFKNHKHIDQRVLNRTIISRLQKLLYDRTGRRPVIIPMVTILNGEGHHHHHH	soluble
